Measured values taken from patent US20250115640A1, “NEUROPROTECTIVE POLYPEPTIDE COMPOUND AND APPLICATION THEREOF” (Innerse (Zhuhai) Pharmaceutical Co., Ltd., priority 2021, published 2025).
Values joined by “and” are separate entries in the source; they are usually repeats but may differ in a detail not shown here. Equal entries are not always repeated.

Legend:
Assay type in all cases: in vivo, Sprague-Dawley (SD) rats
[1] = system: MCAO ischemia-reperfusion model; test: MCAO ischemia-reperfusion model, TTC staining, cerebral infarct area and inhibition rate (Example 6)
[2] = system: MCAO ischemia-reperfusion model; test: MCAO ischemia-reperfusion model, rat Neurological Severity Scores (NSS) (Example 6)
Excerpt: 3) Cerebral ischemia reperfusion surgery: • A. Isolating and exposing blood vessels: the skin of the surgical area was shaved, and the rats were placed under a surgical microscope. The skin of the rat was cut along the midline with ophthalmic scissors, with a cut of about 2 cm length. Through the right neck of the rat, the muscle tissue of the right neck was bluntly isolated and opened with a microforcep to expose the right common carotid artery (CCA), and then isolated upward along the common carotid artery to further expose the external carotid artery (ECA) and internal carotid artery (ICA); • B. The proximal end of CCA was ligated and the CCA at the Y-shaped branch was temporarily clamped; the ligated site of CCA to the clamped site of ICA were threaded, tied with a loose knot (pre-ligation) for later use, and a small incision at the proximal end of the pre-ligation was made; • C. Inserting the suture emboli: Suture emboli No. 4-0 was inserted through the incision of CCA, pushed slowly and gently into the internal carotid artery, and stopped temporarily at the artery clamp of ICA. The pre-ligation thread was tied tightly (to avoid severe bleeding when pushing the suture emboli), then the artery clamp that blocked the blood flow of ICA was removed, and the suture emboli was immediately pushed into ICA until entering into the cranium. One should be careful not to insert the suture emboli into the pterygopalatine artery, which is another branch of the internal carotid artery and is one of the extra-cranial branches of ICA. […] Then the insertion was terminated and the time was recorded. […] Note: The first digit of the animal number represents the group (1, 2, 3 and 4 represent the model control group, S3 group, t-PA group and S3+t-PA group respectively), and the second letter represents the gender (M is male), the last three digits represent the animal serial number. a means giving 3 mL S3 and 3 mL sterile water for injection, b means giving 3 mL t-PA and 3 mL sterile water for injection, c means giving 3 mL S3 and 3 mL t-PA. • Route of administration: tail vein injection; • Administration time: immediately after ischemia-reperfusion (within 5 minutes); • Dosing frequency and cycle: 1 dose; • The day of modeling was defined as D0, and the day before was defined as D-1. • Measurement time: 24 hours before the modeling, 24 and 72 hours after the modeling; • Animals measured: all the surviving animals planned to be measured; • Measurement method: a motor function test, sensory test, balance test, and reflex and abnormal behavior test were performed on animals, according to the rat for details. […]

[3] = Body weight of MCAO model animals (Example 6); conditions: individual animal
Experimental: • Animals measured: all the surviving experimental animals planned to be measured; • Measurement time: the body weight was measured at least twice during the adaptation period, once 24 hours before surgery for grouping, and once 24 hours after surgery.
Cerebral ischemia-reperfusion is an acute injury model, wherein the weight of experimental animals will drop dramatically after MCAO modeling. Thus, the weight of experimental animals is one of the most basic sensitive parameters to comprehensively reflect the health status of animals. In this experiment, the body weight of all the animals was monitored on the day before the surgery and on the first day after the surgery, and the changes of animal's body weight were observed and recorded.

[4] = 3 mg/kg i.v. immediately after reperfusion, 24 h after surgery, group mean ± SD

B1: t-PA: recombinant human TNK tissue-type plasminogen activator for injection (Mingfule) purchased from Guangzhou Mingkang Bioengineering Co., Ltd. (protein, UniProt P00750 36-562, looked up, variant T103N N117Q K296A H297A R298A R299A)
Tissue-type plasminogen …: SYQVICRDEKTQMIYQQHQSWLRPVLRSNRVEYCWCNSGRAQCHSVPVKSCSEPRCFNGGTCQQALYFSDFVCQCPEGFAGKCCEIDTRATCYEDQGISYRGNWSTAESGAECTNWQSSALAQKPYSGRRPDAIRLGLGNHNYCRNPDRDSKPWCYVFKAGKYSSEFCSTPACSEGNSDCYFGNGSAYRGTHSLTESGASCLPWNSMILIGKVYTAQNPSAQALGLGKHNYCRNPDGDAKPWCHVLKNRRLTWEYCDVPSCSTCGLRQYSQPQFRIKGGLFADIASHPWQAAIFAAAAASPGERFLCGGILISSCWILSAAHCFQERFPPHHLTVILGRTYRVVPGEEEQKFEVEKYIVHKEFDDDTYDNDIALLQLKSDSSRCAQESSVVRTVCLPPADLQLPDWTECELSGYGKHEALSPFYSERLKEAHVRLYPSSRCTSQHLLNRTVTDNMLCAGDTRSGGPQANLHDACQGDSGGPLVCLNDGRMTLVGIISWGLGCGQKDVPGVYTKVTNYLDWIRDNMRP
modifications: tenecteplase (TNK-tPA), Mingfule
Infarct area, individual animals ([1]; 3 mg/kg i.v. immediately after reperfusion, 24 h after modeling, individual animal): 19.069% and 18.394% and 16.546% and 21.064% and 19.195% and 18.719% and 16.209% and 18.356% and 19.147%
Infarct area weight [1, 4]: 0.26 ± 0.022 g
infarct area [1, 4]: 18.522±1.372%
Cerebral infarct inhibition rate ([1]; 3 mg/kg i.v. immediately after reperfusion, 24 h after surgery, vs model control, group mean ± SD): 22.802±5.719%
Weight of infarct area, individual animals ([1]; 24 h after modeling, individual animal): 0.291 g and 0.268 g and 0.229 g and 0.289 g and 0.272 g and 0.260 g and 0.230 g and 0.239 g and 0.265 g
Cerebral infarct inhibition rate, individual animals ([1]; vs model control group, individual animal): 20.521% and 23.336% and 31.037% and 12.207% and 19.996% and 21.984% and 32.445% and 23.493% and 20.196%
NSS D2, individual animals ([2]; 3 mg/kg i.v. immediately after reperfusion, after surgery, individual animal): 7 (2×) and 8 and 7.5 (2×) and 6.5 (2×) and 6 and 5.5
NSS D 2 ([2]; 3 mg/kg i.v. immediately after reperfusion, one day after surgery, group mean ± SD): 6.83±0.75
NSS reduction rate ([2]; one day after surgery, relative to model control group, group mean ± SD): 11.83±9.62%
NSS reduction rate, individual animals ([2]; relative to model control group, individual animal): 9.68% (2×) and −3.23% and 3.23% (2×) and 16.13% (2×) and 22.58% and 29.03%
Body weight D 2, individual animals ([3]; after surgery and administration): 230.57 g and 203.58 g and 203.63 g and 199.35 g and 205.31 g and 223.28 g and 223.30 g and 217.60 g and 200.68 g
Body weight D 0, individual animals ([3]; before surgery (baseline)): 289.15 g and 246.68 g and 263.91 g and 259.23 g and 273.31 g and 281.77 g and 281.59 g and 273.94 g and 251.02 g
